Data: article PMC4786922

Test system: S1 zinc finger array (six-finger designed ZF) (artificial (designed))
Assay: EMSA
Conditions: EMSA: ZBA buffer (composition not given), 0.05% NP-40, 0.1 mg/ml BSA, 10% glycerol, 35-75 pM target, 1.5 h at room temperature; pH not given

CCTCTTCGCTATTACGCCAGCCATGCGTAGGGAGCCGCGGAACGTTCGATCGTACTCGAGTCAGGGTG (double strand) [S1 target site EMSA probe]
Kd: 5 nM
